Source: a protein production outcome set (Wang et al. 2014)

Assay: label from the status in PepcDB records

| Sequence | protein production |
| --- | --- |
| MAAPGGRGRSLSGLLPAQTSLEYALLDAVTQQEKDSLVYQYLQKVDGWEQDLSVPEFPEGLEWLNTEEPISVYKDLCGKIVVLDFFTYCCINCIHLLPDLHALEHTYSDKDGLLIIGVHSAKFPNEKVLDNIKSAVLRYNITHPMVNDADASLWQELEVSCWPTLVILGPRGNMLFSLIGEGHKDKLFLYTSIALKYYKDRGQIRDNKIGIKLYKDSLPPSPLLFPGKVTVDQVTDRLVIADTGHHRILVVWKNGQIQYSIGGPNPGRKDGIFSESTFNSPQGVAIMNNIIYVADTENHLIRKIDLEAEKVSTVAGIGIQGTDKEGGAKGEQQPISSPWDVVFGTSGSEVQRGDILWIAMAGTHQIWALLLDSGKLPKKNELTKGTCLRFAGSGNEENRNNAYPHKAGFAQPSGLSLASEDPWSCLFVADSESSTVRTVSLKDGAVKHLVGGERDPMNLFAFGDVDGVGINAKLQHPLGVTWDKKRNLLYVADSYNHKIKVVDPKTKNCTTLAGTGDTNNVTSSSFTESTFNEPGGLCIGENGELLYVADTNNHQIKVMDLETKMVSVLPIFRSENAVVDGPFLVEKQKTLPKLPKSAPSIRLSPVTACAGQTLQFKLRLDLPSGSKLTEGVSSCWFLTAEGNEWLLQGQIAAGDIENISSQPTISLQIPDDCLSLEAIVSVSVFLYYCSADSSACMMKAILFSQPLQITDTQQGCIAPVELRYVF | failed |
| MPNQSNESRPFHKDLESILYAHVPLPMFTMDEEGALLNMNEGAMETLRVDWEQNQRSSVFQLFESECRESLYLALATVNKISQVEKVELIKRNGETFETFCLSLQLLPDKQVIAFIAPLIDKGMDPLTGVPIRQEVPRLMERTFQENQAETYVLFLINLDRFKLVNDSLGEGYGDQVLQTLVRRLLWQLPNQQWIARVSGDEFIACAAIKGELPKKETLATYISSIIQQPFQVDEVQFTMTASIGAAVYPMDGKSVEMIWNSLERALRHAKARGGNCVSWFCQELKDEWIHPFRLENDLRRAVENQELELYFQPIFETTTGEHCGEEVLVRWNHPALGVLGPNFFIPVAEEIGLIGVVGKWVLDEACKQKALLIEKEASSVPMSVNLSLRQFLQPDIVDMILDSLNKYGLDPSLLEVEVTERITIDMNRAMKVLQKLRAQGIRVSLDDFGTGYSSLQYISQLPIQKLKIDKSFIAEIGVNSQVEAIISMIIHLGHELDLTVVAEGVETEKQLSFLKEKKCDTVQGYYHAKPLTFSEFKKYLLS | failed |
| MDKRLQQDRIVDKMERFLSTANEEEKDVLSSIVDGLLAKQERRYATYLASLTQIESQEREDGRFEVRLPIGPLVNNPLNMVHGGITATLLDTAMGQMVNRQLPDGQSAVTSELNIHYVKPGMGTYLRAVASIVHQGKQRIVVEGKVYTDQGETVAMGTGSFFVLRSRGLEHHHHHH | not failed |
| MGKDGLSDDQVSSMKEAFMLFDTDGDGKIAPSELGILMRSLGGNPTQAQLKSIIASENLSSPFDFNRFLDLMAKHLKTEPFDRQLRDAFKVLDKEGTGFVAVADLRHILTSIGEKLEPNEFDEWIKEVDVGSDGKIRYEDFIARMVAK | failed |
| MDYVVSYLSIEFGLCFILFFVLYWGLGFSLRLQNVLLLVASYAILASFSLNFLYILLGYTALVYLLGLLSQRYPGRGWVNGLMLLLVLGAFYLFKYQDFFTSTVQNAFAQFGVEVSLPLLEVLLPVGLSFYAFHSVSYLVSINRRELTPGSPFDLALYLAFFPSLIAGPVNRAIPMLAQINPPQLRQVLEPQRALGLIAVAVVKLFFLSSWLANEWVDPVFDSPVAYSAEQILRAVYGYSFLIYFNFSGYTDLVTGIALLLGFRLPQNFNYPYAARNLKEFWGRWHISLSTFIRDYVYIPLGGNRGPVWRGNLNMLLAMLISGLWHGASANFIIWGALHGIGLALYKLCSPLLARGPSWIGADLMARLLTFHYVAFAWIFFRCATLSDAMDMLKGLGELSLGGLLGGGASLLGCLLFVAFYPRIVALLRRLFDAATGLPWLFYPVPLGLFICVVIFASPSGVPGFIYASF | failed |
| YKELDVHLRRMESGFGFRILGGDEPGQPILIGAVIAMGSADRDGRLHPGDELVYVDGIPVAGKTHRYVIDLMHHAARNGQVNLTVRRKVL | not failed |
| EVPIGFDTDELSFDMSLVLLTGDMQTKASDPNYTYATTEELTIQNCHVAVFDKDGKRIYFKNFYSKDLGEMKTIGNLSGYELQLEGVRTFGKEDKKVSVLVVANANNANNSPFDNLTTYDGVDNSYTAKTIAKGPVTASLLVKIGKSETTLKYNQDNAPVTVSLIQLSAKIEYTGVYKKENGELLEGFSLTKVAGLNASSKITIFNTSAVENGAFSDLAYPTTKPVTFYTYEISDAFKEVILSVQSGVEPKEYPFPANKFIKGNYYRIKGLKSSTEIEWVLENVEDKEVTLDPFE | not failed |
| MTTSIGGLFFNLVALSLLSAIGLGVVHGITYSKWMPLLGNNATFGIHKFSIQVNVKECIKGCMLAILTMVPFIIVIGIMIAPVFQQLMMMTMLGGSDAGSEFVLQYYPQIMASYFLYFVAILVFASYLYVTLRNLFLNNLTLANGTIRFHSSVTAIGMLLRMLAVLMGSSITCGLAYPWLKMWMVSWIANNTHVQGDLDSLELTNDDKPQDSGSLMWISRGIMPYVPFI | failed |
| ELEHQISGTSKEALLDDIRSLIDSASYTYIRQREMKGLGHAILTGRELVGDEPFAVVLADDLCVNEEQGVLAQMVELYKQFRCSIVAVQEVPETETHKYGVIAGEMIKDDIFRIDNMVEKPEPGTAPSNLAIIGRYILTPDIFELIENTEPGKGGEIQITDALMQQAQSGCVIAYKFKGQRFDCGSVEGYIEATNYCYENLYKKASSAELAKTPTVKVSEPA | failed |
| MVNQPLVSIIIPAYRAENTIAFTVRSVLAQTYDHWQVAIGVDDQVDYLQLLAEQGINDPRLKQVFTGGIGSGEAIARNKAVSICDGDILANLDADDAFASDRLEKLVPLAEKYGVAIDNTGVYNSELVLYKQPFPQRQALNFATAADILSPRIPFFPVFQRQLLGDGWTKVPFAADVLFNLELLSRTEKVAIHPEPLYRYYKRDNSITQSANAFETAEKAYLTILSLLDEGALTLTDAIRQAARQEFSENLALNKVFRRYMEEGRCQNLEQFLDMTNNGQKIEFVSNLNLEHHHHHH | not failed |
| MGDVVEMTSELGFKYSILASGSTGNSFYLETPEKKILVDAGLSGKKITSLLAEIDRDPSDLDAILVTHEHKDHIHGVGVLARKYGMDIYANEKTWQIMDSKNMLGKVDNSQKHIFSRGKLLTFGDIDIESFGVSHDAINPQFYRFMKDGKSFVMLTDTGYVSDRMAGLIENADGYLIESNHDIEILRAGSYPWSTKQRILSDQGHLCNEDGADAMIRTIGNKTKKIYLGHLSKENNIKELAYMTMENQLARADFGVGTDFKIFVTSPDTATPLTDILEHHHHHH | not failed |
| MTISEVSKKYELSADTLRYYERIGLIPPVNRNKSGIRSFTEEDCEWVNFIKCMRGAGLSIETLIEYVAMFQQGSSTIKARKELLIEQRNQLAKRIEEMQKTLERLNFKIDRYEEGIIEKEKVLKSSRNKKMEAVSYE | not failed |
| MIELQLELFPGHIAGLLLVELSKPVEDFASIFIQGTWECALLDAGVVFHKSQLLTAVNVAFQRFEAGRLKTHSLHNEVMLALSAKLSIRDGLAAVRFSWEKTRCLVVAVDPPASFPQAAESTSNALAAKVRHFPEGANELFNELLVHVDKPSIQNLYGTDIDPHWICTKIATVEYVRQLR | failed |
| MKNYTLISPCFFGMEKMLAREITNLGYEIIKTEDGRITYKTDEFGIAKSNMWLRCAERVHLKIAEFEAKSFDELFENTKRINWSRYIPYGAQFPISKASSIKSKLYSTPDVQAIVKKAIVESLKKSYLEDGLLKEDKEKYPIFVFIHKDKVTISIDTTGDALHKRGYREKANKAPIRETLAAGLIYLTPWKAGRVLVDPMCGSGTILIEAAMIGINMAPGLNREFISEKWRTLDKKIWWDVRKDAFNKIDNESKFKIYGYDIDEESIDIARENAEIAGVDEYIEFNVGDATQFKSEDEFGFIITNPPYGERLEDKDSVKQLYKELGYAFRKLKNWSYYLITSYEDFEYEFGQKADKKRKLYNGMLKTNFFQYPGPKPPRNNK | not failed |
| MIITVASFKGGVGKTTTAVHLSAYLALQGETLLIDGDPNRSATGWGKRGSLPFKVVDERQAAKYAPKYQNIVIDTQARPEDEDLEALADGCDLLVIPSTPDALALDALILTIETLQKLGNNRFRILLTIIPPYPSKDGDEARQLLTTAGLPLFKRGIKRYSAFQKASLNGVVVSEVSDSKAGIAWSDYKATGKEIVEEILILEHHHHHH | not failed |
| MTLISRILGLVRDVVIASLLGAGAMSDVFLFANRIPNFLRRLFAEGAFSKAFVPVLAEYNADNDLDKTREFIAKVSGTLGLLVTVVTLVAMLISPIIAALFGTGWFIDWFNDGPDAQKFTQASLLLKITFPYLWFITFIALSGAVLNTIGKFGVMAFSPVLLNVAMISMALFGADYFEQPDIALAWGIFLGGLLQFLFQIPFMIKERLLVKPKWAWKDEGVTKVRRLMIPALFGVSVTQINLLLNQVIASFLVTGSITWLYYSDRLIEFPLGLFGIAISTVVLPNLSRITKKKALNEEQRAIAFKQTLDWGVRMVVALGIPAMVGIAILAQPLIMTIFMRGKFVLADVIATSHALWIMCLGLNSYMLISVLANGFYARQNTKTPVKIGIIATIANICFGVLAIPFGYLGLAMASALSAAVNASLLYYNLVKEQAYCLSKKTVIFILKVAISACAMGVLVSYFSPTLTDWYAMKMWLKVHWLVWLISLAAISYFAVLMVLGIRKQDFRA | failed |
| MTCANCATDVIYMAERQNERDDRQKLKNISFAKKILLGLSMYVPSSTFKKIVLKLLGAHIGKNVYFGPGSLVLSNDYSSVYIENNVFVAPGVLINVNNFTVGENSHLGYQCLMVGESLKIGSRCNISNRTFIECSYSPILIEDDVTIGGCAMVSTHDGSYRQVYGLEMKAAPIYIRSKAFIGNNAIILPGIEIGRKVIVGAGAVVTKNAVANSVICGVPADKIRTMEVSNENITGN | failed |
| MYRDIATKLVAAIQDGIFTVKLPTEAQLMERYQASRNTIRKAIDLVYQQGLLRRVQGSGYYITNIQLQHKTVVNLSARSLFNSHVHPRTLTSKILTFDTIHGDSALSRKLNIPVDEELYRIIRLRYWHDQLYCLEKAYYLRSVVPYLSTEAVNTSIWDFINEAYGIGIANSDDYLSLTNLNKEEAELMNLAQGATHLALDSCNYYKNNGLLDFSHTIFVYPDLALYFHTTNLANN | failed |
| LGEICKAVLVDPSSNLTLDHWADKCGLSRRTLTRLFRRETGQSFSGWRQRVRLLEALARLGAGETVTGVALDVGYDSPSAFAAMFKRELGAAPRHYLR | failed |
| EDRNFVYLKRQVPMDVADKIKQMALPGIHQQPESRRYYPEGEVTAHIVGFNNVEDQGQEGVELTFNQQLSGQPGSRRVIKDRLGRVIEDVQAVTLPVDGRDLRLSID | failed |
| RLLRLKLSSLGVLKVFPNRDEAYKDIFKDLVDSNEILLLGYKGNALLSNSDYPSRLEILEEYSRGQKIAIKALLLSPQAKQYVKKRSVELGEKNLHRNHSRDIEDSIVNFRKVKENGILDVECRLFSEALKWSLLFSDKYILVSFYNNKVRVKLSPCFKLRRSSMLGWAFEKHFRDLWEKKSIDAFTSYTRPCVIVVVGGSFTGKSIISNHLSNKYQFSGVLSTDMVRNFFRISTRDRKTYQTSTYRMDDSELNIQKNNVSNMIEQMLEIYRSRREKIIIEGMHLTEDFLRNINKQDCLIIGLDNKRDINDRLDLKMKTTREEVSKKTEDEKKRINEIHYGIIECCKRNNFKVVEFQDIEDAKDKCEHLVEEFFTQRSKR | failed |
| MSADYPRDLIGYGNNPPHPHWPGDARIALSFVLNYEEGGERCVLHGDKESEAFLSEMVAAQPLQGVRHMSMESLYEYGSRAGVWRLLKLFKRRNVPLTVFAVAMAAQRNPEVIRAMVADGHEICSHGYRWIDYQYMDEAQEREHMLEAIRILTELTGQRPVGWYTGRTGPNTRRLVMEEGGFLYDSDTYDDDLPYWDPASTAEKPHLVIPYTLDTNDMRFTQVQGFNNGEQFFQYLKDAFDVLYEEGATAPKMLSIGLHCRLIGRPARMAALERFIQYAQSHDKVWFARREDIARHWHREHPFQETEA | not failed |
| MLFIPPPLLCLFIAIAMYFLPKIASYSVHFSVIVFVISLSFLIALSSVMQSLYVKPPLILVTLKAQQN | failed |
